This is an account of results in article PMC10019796 (Scientific Reports, 2023).

The target of assay [1] is T1, mtDsbC-SARS-CoV-2 RBD wild type fusion protein (SARS-CoV-2, wild type (Wuhan-Hu-1), UniProt P0DTC2, biotin (EZ-Link NHS-PEG4-Biotin)).
T1 construct: also called RBD SARS-CoV-2 (wild type); mtDsbC-RBD; not shown: mtDsbC solubility tag, N-terminal, kept
Nature of the assay: BLI; biotinylated mtDsbC-RBD (20 µg/mL) immobilised on streptavidin (SA) biosensors, Fabs as analytes at three nanomolar concentrations; Octet RED384, 30 °C, 1000 rpm, 1 × PBS Kinetics Buffer; 1:1 interaction model, global fit. The following applies: both partners purified.

Assay [2] deals with T2, mtDsbC-SARS-CoV-2 RBD Alpha variant (B.1.1.7) fusion protein (SARS-CoV-2, Alpha (B.1.1.7), RBD N501Y, N501Y, biotin (EZ-Link NHS-PEG4-Biotin)).
T2 construct: also called RBD SARS-CoV-2 (alpha variant); not shown: mtDsbC solubility tag, N-terminal, kept
The assay is described as above. The settings on record: both partners purified.

B1: REGN10933 (Casirivimab) Fab wild type (Fab, V domains shown)
VH: QVQLVESGGGLVKPGGSLRLSCAASGFTFSDYYMSWIRQAPGKGLEWVSYITYSGSTIYYADSVKGRFTISRDNAKSSLYLQMNSLRAEDTAVYYCARDRGTTMVPFDYWGQGTLVTVSS
VL: DIQMTQSPSSLSASVGDRVTITCQASQDITNYLNWYQQKPGKAPKLLIYAASNLETGVPSRFSGSGSGTDFTFTISGLQPEDIATYYCQQYDNLPLTFGGGTKVEIK
notes: Fab heavy chain of REGN10933; Fab light chain of REGN10933; Polycistronic gene, light chain upstream of heavy chain; also called REGN10933 wild type; REGN10933 Fab
Regarding B1, the Kd in assay [1] worked out at 2.84 nM; in assay [2] it was 3.12 nM.

B2: REGN10933 (A75S) Fab (Fab, V domains shown)
VH: QVQLVESGGGLVKPGGSLRLSCAASGFTFSDYYMSWIRQAPGKGLEWVSYITYSGSTIYYADSVKGRFTISRDNSKSSLYLQMNSLRAEDTAVYYCARDRGTTMVPFDYWGQGTLVTVSS
VL: DIQMTQSPSSLSASVGDRVTITCQASQDITNYLNWYQQKPGKAPKLLIYAASNLETGVPSRFSGSGSGTDFTFTISGLQPEDIATYYCQQYDNLPLTFGGGTKVEIK
B2: the Kd in assay [1] worked out at 3.22 nM; in assay [2] it was 2.75 nM.

B3: REGN10933 (N93Q) Fab (Fab, V domains shown)
VH: QVQLVESGGGLVKPGGSLRLSCAASGFTFSDYYMSWIRQAPGKGLEWVSYITYSGSTIYYADSVKGRFTISRDNAKSSLYLQMNSLRAEDTAVYYCARDRGTTMVPFDYWGQGTLVTVSS
VL: DIQMTQSPSSLSASVGDRVTITCQASQDITNYLNWYQQKPGKAPKLLIYAASNLETGVPSRFSGSGSGTDFTFTISGLQPEDIATYYCQQYDQLPLTFGGGTKVEIK
With B3, the dissociation constant Kd is 2.76 nM in assay [1] and 3.42 nM in assay [2].

B4: REGN10933 (M104N) Fab (Fab, V domains shown)
VH: QVQLVESGGGLVKPGGSLRLSCAASGFTFSDYYMSWIRQAPGKGLEWVSYITYSGSTIYYADSVKGRFTISRDNAKSSLYLQMNSLRAEDTAVYYCARDRGTTNVPFDYWGQGTLVTVSS
VL: DIQMTQSPSSLSASVGDRVTITCQASQDITNYLNWYQQKPGKAPKLLIYAASNLETGVPSRFSGSGSGTDFTFTISGLQPEDIATYYCQQYDNLPLTFGGGTKVEIK
With B4, the equilibrium dissociation constant (Kd) in assay [1] is 143 nM; in assay [2], 119 nM.

B5: REGN10933 (T28E) Fab (Fab, V domains shown)
VH: QVQLVESGGGLVKPGGSLRLSCAASGFEFSDYYMSWIRQAPGKGLEWVSYITYSGSTIYYADSVKGRFTISRDNAKSSLYLQMNSLRAEDTAVYYCARDRGTTMVPFDYWGQGTLVTVSS
VL: DIQMTQSPSSLSASVGDRVTITCQASQDITNYLNWYQQKPGKAPKLLIYAASNLETGVPSRFSGSGSGTDFTFTISGLQPEDIATYYCQQYDNLPLTFGGGTKVEIK
On to B5, for which the dissociation constant Kd in assay [1] and in assay [2] was less than 0.001 nM each time.

B6: REGN10987 (Imdevimab) Fab wild type (Fab, V domains shown)
VH: QVQLVESGGGVVQPGRSLRLSCAASGFTFSNYAMYWVRQAPGKGLEWVAVISYDGSNKYYADSVKGRFTISRDNSKNTLYLQMNSLRTEDTAVYYCASGSDYGDYLLVYWGQGTLVTVSS
VL: QSALTQPASVSGSPGQSITISCTGTSSDVGGYNYVSWYQQHPGKAPKLMIYDVSKRPSGVSNRFSGSKSGNTASLTISGLQSEDEADYYCNSLTSISTWVFGGGTKLTVL
notes: Fab heavy chain of REGN10987; Fab light chain of REGN10987; Polycistronic gene, light chain upstream of heavy chain; also called REGN10987 wild type; REGN10987 Fab
Regarding B6, the results for the dissociation constant (Kd) in assay [1] and in assay [2] were 43.9 nM and 54.1 nM, respectively.

B7: REGN10987 (S95K) Fab (Fab, V domains shown)
VH: QVQLVESGGGVVQPGRSLRLSCAASGFTFSNYAMYWVRQAPGKGLEWVAVISYDGSNKYYADSVKGRFTISRDNSKNTLYLQMNSLRTEDTAVYYCASGSDYGDYLLVYWGQGTLVTVSS
VL: QSALTQPASVSGSPGQSITISCTGTSSDVGGYNYVSWYQQHPGKAPKLMIYDVSKRPSGVSNRFSGSKSGNTASLTISGLQSEDEADYYCNSLTKISTWVFGGGTKLTVL
Regarding B7, the Kd in assay [1] was 30.5 nM; in assay [2] it was 22.8 nM.

B8: REGN10987 (N31D) Fab (Fab, V domains shown)
VH: QVQLVESGGGVVQPGRSLRLSCAASGFTFSDYAMYWVRQAPGKGLEWVAVISYDGSNKYYADSVKGRFTISRDNSKNTLYLQMNSLRTEDTAVYYCASGSDYGDYLLVYWGQGTLVTVSS
VL: QSALTQPASVSGSPGQSITISCTGTSSDVGGYNYVSWYQQHPGKAPKLMIYDVSKRPSGVSNRFSGSKSGNTASLTISGLQSEDEADYYCNSLTSISTWVFGGGTKLTVL
Regarding B8, the figures for the Kd in assay [1] and in assay [2] were 17.9 nM and 13.7 nM, respectively.
